Assay results published in PMC7266957.

What was measured:
[1] = test system: Type I-F Cascade (Cas8f, Cas5f, His-Cas7f, Cas6f, crRNA) (Shewanella baltica OS195); assay: BLI
[2] = test system: Type I-Fv Cascade (Cas5fv, His-Cas7fv, Cas6f, crRNA spacer4) (Shewanella putrefaciens CN-32); assay: BLI; conditions: BLI buffer: SEC buffer (composition in Supplementary Table II, not in material) + 0.1 uM BSA + 0.01% Triton X-100, 100 nM biotinylated oligonucleotide loaded …

For “CGCCGGTTATAGGTTTGCGCGTCTTGCTGGGCGATAGGACGTGGGATATCTTTTTGATATCCCACGTCCTATCGCCCAGCAAGACGCGCAAACCTATAACCGGCG (double strand) [Complementary (GG PAM)]”, which Kd ([1]; BLI buffer: SEC buffer (composition in Supplementary Table II, not in material) + 0.1 uM BSA + 0.01% Triton X-100, 100 nM biotinylated oligonucleotide loaded …) is on record?
The Kd was 99.6 nM.

And the binding signal ([1]; BLI buffer: SEC buffer (composition in Supplementary Table II, not in material) + 0.1 uM BSA + 0.01% Triton X-100, 100 nM biotinylated oligonucleotide loaded …, scale: fold reduction of equilibrium binding level)?
The binding signal was 5.

And the Kd [2]?
Its Kd is 46.5 nM.
